Data taken from article PMC8927968, “Lysine Methylation Modulates the Interaction of Archaeal Chromatin Protein Cren7 With DNA”.
Residue numbers refer to the chain shown, from its start.

What was measured:
[1] = system: Sis7dWT (native, methylated) (Sulfolobus islandicus E234); test: BLI; conditions: BLI: 20 mM Tris-HCl pH 6.8, 100 mM KCl, 1 mM EDTA, 0.05% Tween-20, 30°C; pull-down: 10 mM HEPES pH 7.6, 100 mM KCl, 2.5 mM MgCl2, 0.1 mg/mL BSA, room …
[2] = system: Sis7dΔaKMT (native, unmodified) (Sulfolobus islandicus ΔaKMT); test: BLI; conditions: BLI: 20 mM Tris-HCl pH 6.8, 100 mM KCl, 1 mM EDTA, 0.05% Tween-20, 30°C; pull-down: 10 mM HEPES pH 7.6, 100 mM KCl, 2.5 mM MgCl2, 0.1 mg/mL BSA, room …
rSis7d = test: BLI; conditions: BLI: 20 mM Tris-HCl pH 6.8, 100 mM KCl, 1 mM EDTA, 0.05% Tween-20, 30°C; pull-down: 10 mM HEPES pH 7.6, 100 mM KCl, 2.5 mM MgCl2, 0.1 mg/mL BSA, room …
Cren7 K24Q K24Q = target: T1, Cren7 K24Q K24Q (UniProt C3NHU3); test: DNA-cellulose pull-down (bridging); conditions: BLI: 20 mM Tris-HCl pH 6.8, 100 mM KCl, 1 mM EDTA, 0.05% Tween-20, 30°C; pull-down: 10 mM HEPES pH 7.6, 100 mM KCl, 2.5 mM MgCl2, 0.1 mg/mL BSA, room …
T1 sequence: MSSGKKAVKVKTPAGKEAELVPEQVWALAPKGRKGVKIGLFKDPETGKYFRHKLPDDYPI

Cren7 K31Q K31Q = target: T2, Cren7 K31Q K31Q (UniProt C3NHU3); test: DNA-cellulose pull-down (bridging); conditions: BLI: 20 mM Tris-HCl pH 6.8, 100 mM KCl, 1 mM EDTA, 0.05% Tween-20, 30°C; pull-down: 10 mM HEPES pH 7.6, 100 mM KCl, 2.5 mM MgCl2, 0.1 mg/mL BSA, room …
T2 sequence: T1 sequence with Q24K, K31Q

Cren7 K42Q K42Q = target: T3, Cren7 K42Q K42Q (UniProt C3NHU3); test: DNA-cellulose pull-down (bridging); conditions: BLI: 20 mM Tris-HCl pH 6.8, 100 mM KCl, 1 mM EDTA, 0.05% Tween-20, 30°C; pull-down: 10 mM HEPES pH 7.6, 100 mM KCl, 2.5 mM MgCl2, 0.1 mg/mL BSA, room …
T3 sequence: T1 sequence with Q24K, K42Q

Cren7 K48Q K48Q = target: T4, Cren7 K48Q K48Q (UniProt C3NHU3); test: DNA-cellulose pull-down (bridging); conditions: BLI: 20 mM Tris-HCl pH 6.8, 100 mM KCl, 1 mM EDTA, 0.05% Tween-20, 30°C; pull-down: 10 mM HEPES pH 7.6, 100 mM KCl, 2.5 mM MgCl2, 0.1 mg/mL BSA, room …
T4 sequence: T1 sequence with Q24K, K48Q

[3] = target: T5, Cren7WT (native, methylated) (Sulfolobus islandicus E234) (UniProt C3NHU3); test: DNA-cellulose pull-down (bridging); conditions: BLI: 20 mM Tris-HCl pH 6.8, 100 mM KCl, 1 mM EDTA, 0.05% Tween-20, 30°C; pull-down: 10 mM HEPES pH 7.6, 100 mM KCl, 2.5 mM MgCl2, 0.1 mg/mL BSA, room …
T5 sequence: T1 sequence with Q24K

rCren7 [4] = target: T6, rCren7 (UniProt C3NHU3 1-60); test: DNA-cellulose pull-down (bridging); conditions: dsDNA-cellulose, 2.5 mM MgCl2, BLI: 20 mM Tris-HCl pH 6.8, 100 mM KCl, 1 mM EDTA, 0.05% Tween-20, 30°C, pull-down: 10 mM HEPES pH 7.6, 100 mM KCl, 2.5 mM MgCl2, 0.1 mg/mL BSA, room …
T6 sequence: T1 sequence with Q24K

Cren7 K24Q = target: T7, Cren7 K24Q (UniProt C3NHU3 1-60, K24Q); test: BLI; BLI: 20 mM Tris-HCl pH 6.8, 100 mM KCl, 1 mM EDTA, 0.05% Tween-20, 30°C; pull-down: 10 mM HEPES pH 7.6, 100 mM KCl, 2.5 mM MgCl2, 0.1 mg/mL BSA, room temperature; conditions: protein: recombinant; label: 5' biotin on strand 1; blunt
T7 sequence: T1 sequence

rCren7 [5] = target: T6, rCren7; test: as above; conditions: protein: recombinant; label: 5' biotin on strand 1; blunt
Cren7 K48Q = target: T8, Cren7 K48Q (UniProt C3NHU3 1-60, K48Q); test: as above; conditions: protein: recombinant; label: 5' biotin on strand 1; blunt
T8 sequence: T1 sequence with Q24K, K48Q

Cren7 K42Q = target: T9, Cren7 K42Q (UniProt C3NHU3 1-60, K42Q); test: as above; conditions: protein: recombinant; label: 5' biotin on strand 1; blunt
T9 sequence: T1 sequence with Q24K, K42Q

Cren7 K31Q = target: T10, Cren7 K31Q (UniProt C3NHU3 1-60, K31Q); test: as above; conditions: protein: recombinant; label: 5' biotin on strand 1; blunt
T10 sequence: T1 sequence with Q24K, K31Q

TAGAGCCCTAGTCTTCCAAACTAGCTACGC (double strand) [D30]
Kd [1]: 1640 nM | Kd [2]: 1370 nM | Kd (rSis7d): 1040 nM

pBR322
binding signal (Cren7 K24Q K24Q): < 10 % of rCren7 | binding signal (Cren7 K31Q K31Q): < 10 % of rCren7 | binding signal (Cren7 K42Q K42Q): < 10 % of rCren7 | binding signal (Cren7 K48Q K48Q): < 10 % of rCren7 | binding signal (% (barely detected)) [3]: < 10 | binding signal (% input pulled down) (rCren7 [4]; 5 uM protein): 18 | binding signal (% input pulled down) (rCren7 [4]; 10 uM protein): 35

B1: D30 (dsDNA)
DNA 1: TAGAGCCCTAGTCTTCCAAACTAGCTACGC
DNA 2: GCGTAGCTAGTTTGGAAGACTAGGGCTCTA
Kd (Cren7 K24Q): 217 nM | Kd (rCren7 [5]): 125 nM | Kd (Cren7 K48Q): 199 nM | Kd (Cren7 K42Q): 1120 nM | Kd (Cren7 K31Q): 103 nM
